{"source": "paper PMC4939424", "about": "(2016)", "binders": {"B1": {"name": "GST-fused PI3KAP/XB130 C-terminal fragment, amino acid residues 511-843 (GST-del1) (protein)", "chain": "LPSRDCQDDLYDDVEVSELIAVVEPAEEAAPAVDANSGSEPDRVYLDLTPVKSFLHSSSEAQAQASLPAVPHQDDVAETLTVDPKPGTTPEEPHTESPGDPEVQQRQPEVQESSEPIEPTPRITMVKLQAEQQRISFPANCPDTMASAPIAASPPVKEKLRVTSAEIKLGKNRTEAEVKRYTEEKERLERSKEEIRGHLAQLRREKRELKETLLRCTDKGVLAKLEQTLKKIDEECRMEESRRVDLELSIMEVKDNLKKAEAGPVTLGTTVDTTHLDNMSPRPQPKAATPNPPPDSTPVNSASVLKNRPLSVMVTGKGTVLQKAKEWEKKGAS"}, "B2": {"name": "GST-fused C-terminal 70 amino acid residues of PI3KAP/XB130 (GST-del3) (protein)", "chain": "PVTLGTTVDTTHLDNMSPRPQPKAATPNPPPDSTPVNSASVLKNRPLSVMVTGKGTVLQKAKEWEKKGAS"}, "B3": {"name": "GST-fused PI3KAP/XB130 fragment, GST-del1 without the C-terminal 70 amino acids (GST-del2) (protein)", "chain": "LPSRDCQDDLYDDVEVSELIAVVEPAEEAAPAVDANSGSEPDRVYLDLTPVKSFLHSSSEAQAQASLPAVPHQDDVAETLTVDPKPGTTPEEPHTESPGDPEVQQRQPEVQESSEPIEPTPRITMVKLQAEQQRISFPANCPDTMASAPIAASPPVKEKLRVTSAEIKLGKNRTEAEVKRYTEEKERLERSKEEIRGHLAQLRREKRELKETLLRCTDKGVLAKLEQTLKKIDEECRMEESRRVDLELSIMEVKDNLKKAEAG"}}, "data": [{"target": "Actin filaments (F-actin) polymerized in vitro from rabbit skeletal muscle actin (Oryctolagus cuniculus (Rabbit), UniProt P68135)", "assay": "F-actin co-sedimentation (pelleting)", "values": [{"binder": "B1", "binding result": "binds"}, {"binder": "B2", "binding result": "binds"}, {"binder": "B3", "binding result": "no binding"}]}]}
